Experimental data from the supplement of paper PMC9170038.

System: MS2 coat protein
Assay: apparent KD of MS2 coat protein; designed switch direction (-1 OFF switch, 1 ON switch): -1; higher = weaker reporter binding
Method in brief: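 The apparent KD reported per design is the median over clusters of curve fits to normalised cluster fluorescence. The RNA switches were transcribed on Illumina chips by stalled E. coli RNA polymerase. SNAP-549-labelled MS2 coat protein was titrated from 0.7 or 1.5 nM, doubling up to 3 µM, in Tris-HCl pH 7.5 buffer containing KCl, MgCl2, BSA, DTT, tRNA and Tween-20, with no input, 200 uM small-molecule ligand, or an oligonucleotide input.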

[1] = input ligand: microRNA oligo, concentration not stated
[2] = Eterna round: R95, input ligand: microRNA oligo, concentration not stated
[3] = Eterna round: R95, input ligand: FMN 200 uM
[4] = Eterna round: R95, input ligand: none

Sequence | apparent KD of MS2 coat protein (input ligand: FMN 200 uM) | apparent KD of MS2 coat protein (input ligand: none) | apparent KD of MS2 coat protein [1] | apparent KD of MS2 coat protein [2] | apparent KD of MS2 coat protein [3] | apparent KD of MS2 coat protein [4]
CUUAUGUCAGGAUAUUAGUAGUAAAUAAAUAAAAUUAUUACUGAGAAGGGACAUGAGGAUCACCCAUGUUCCUC [Salish 062 v4] (Eterna round: R97, puzzle: Exclusion 4) | 96 nM | 23.9 nM | – | – | – | –
CGAUGCUCGAAUCCACAUGAGGAUCACCCAUGUCGAGUUAGCGAGGAUAUCGGAGACACAUAGUAUGAGAAGGCGCGAACCUGA [Ex NG3 #23] (Eterna round: R96, puzzle: Exclusion NG 3) | 15.5 nM | 12.1 nM | 10.5 nM | – | – | –
CCGCGCCGGCGAGGAUAUUAGAAAGGAAGUGUAUAAGAAGGCGCCAUGCGCGAACAUGAGGAUCACCCAUGUGCCGCUCGUGUA [PowerStrip EXNG 1.24] (Eterna round: R96, puzzle: Exclusion NG 1) | 39.7 nM | 23.1 nM | 15.4 nM | – | – | –
ACGGACUGAGGAUAUGCAUGCAGGAUACCUUAGUCCAAGGGACAUGAGGAUCACCCAUGUAGAAGGCGGAAAUA [Riedzaanor] (Eterna round: R97, puzzle: Exclusion 2) | 26.1 nM | 26.5 nM | – | – | – | –
CUGAUGUUAGGAUAUCAGGCGCCCGCCACUAGCAGGGCGCAUGAGAAGGGACAUGAGGAUCACCCAUGUAGUAA [Anbionxe] (puzzle: Exclusion 4) | – | – | – | 27.3 nM | – | –
UCACGGGACUAAGGAUAUACAUGAACCAUUUUUGUAGAAGGUAGAAUGUUUGAUCAUAAACUAAACAUGAGGAUCACCCAUGUU [JR_ExcNG1_Sub090] (Eterna round: R96, puzzle: Exclusion NG 1) | – | – | 16.9 nM | – | – | –
GAAAAGGUAGGAUAUACGAAAAAAAAGGGAAGAAAAAAAACACAUGAGGAUCACCCAUGUAGAAGGACCAAAAG [salish99_ex2_r3_064] (puzzle: Exclusion 2) | – | – | – | 21.6 nM | 34.4 nM | 20.6 nM
CUUUUGUGAGGAUAUCAGUAGUAAUACAAUAGUAUUACUACUGAGAAGGCACAUGAGGAUCACCCAUGUUCUUC [Ex4 344 Omei mod 2] (puzzle: Exclusion 4) | – | – | – | 23.2 nM | – | –
UUCGUGCAGCUUUGCUGUACGCGUACAUGAGGAUCACCCAUGUAGGAUAUGGUAGGCUUUGCUUACUAGAAGGAUAGAGUGAUC [JL EXNG3 1.29] (Eterna round: R96, puzzle: Exclusion NG 3) | 80.7 nM | 95.7 nM | 67.8 nM | – | – | –
CCGCAGCGGUAGGAUAUUAUGACGUCAUGGGCAUAAGAAGGACCGACAUGAGGAUCACCCAUGUUGGGUGCCCG [EX6 C.24] (Eterna round: R97, puzzle: Exclusion 6) | 33.7 nM | 21.7 nM | – | – | – | –
GUCAGCUCGUCAGGAUAUACAUGCGUGCUUCGGCACGAAUUUAAGAUCACAUGAGGAUCACCCAUGUAGAAGGGACGAGCUGAU [ENG2/3-B2] (Eterna round: R96, puzzle: Exclusion NG 2) | 819 nM | 600 nM | 441 nM | – | – | –
AGAUUACGAGGAUAUCGAUUUUAGUACAUGAGGAUCACCCAUGUUAUCCAGGUCUCGUUUCGAGAAGGCGUGAUUC [LRO-Ex5-07] (puzzle: Exclusion 5) | – | – | – | 196 nM | – | –
GGAGGACGAGCAGGAUAUUUUCACAUGAGGAUCACCCAUGUGUACUCAGGGUAAUCCUCCGCCGAAAAGAAGGGUUCGGAAUAA [Mat - Exclusion NG 2 - Mod of JL - D81] (Eterna round: R96, puzzle: Exclusion NG 2) | 39.8 nM | 74.1 nM | 27.8 nM | – | – | –
GGCAAUAACGAGGAUAUCGUAUCGGAAACGAUACGAGAAGGUGUAACAUGAGGAUCACCCAUGUUCCUUAAGCC [Fiskers Ex 6 - 9] (puzzle: Exclusion 6) | – | – | – | 23.5 nM | – | –
GUGAGAUAGUUAGUGGCCGACAUGAGGAUCACCCAUGUGAGGGAAAUGUUGAGGCGAAAGCUUUUUGCUCGUCUUUA [JR_SV3TOV1_Sub037] (puzzle: Sensor v3, turn-off variant 1) | – | – | – | 139 nM | 30 nM | 34.8 nM
GAUUGACAUGAGGAUCACCCAUGUGAGGAUAUCGGCCGGACCGUGCCGGCUUCCGUCGCGAGAAGGCGCAUAGG [Exclusion 1 V40] (puzzle: Exclusion 1) | – | – | – | 32 nM | 49.5 nM | 37.3 nM
ACAUCACAGCUAGGAUAUAUAUGACAUGAGGAUCACCCAUGUUGUCCCAUGUUGACGAAAACCGAAUAGAAGGAGCCACAGAUG [Ex NG2 #3] (Eterna round: R96, puzzle: Exclusion NG 2) | 91.3 nM | 67.2 nM | 61.5 nM | – | – | –
AAGAAACAUGAGGAUCACCCAUGUGAGGAUAUGAGAAAGAAAAGAAAAGAAAGAAGAUUCAGAAGGCACAAAGG [salish99-ex1_r3_035] (puzzle: Exclusion 1) | – | – | – | 43.9 nM | 91.9 nM | 50 nM

Sequence | apparent KD of MS2 coat protein (input ligand: FMN 200 uM) | apparent KD of MS2 coat protein (input ligand: none) | apparent KD of MS2 coat protein [1] | apparent KD of MS2 coat protein [2] | apparent KD of MS2 coat protein [3] | apparent KD of MS2 coat protein [4]
GCGGAGUCAGGAUAUUGAAUUUAACGUACCAAUUAGGUACGCGAGAAGGGACAUGAGGAUCACCCAUGUACCGC [Eli x4 4.03] (Eterna round: R97, puzzle: Exclusion 4) | 11.4 nM | 15.9 nM | – | – | – | –
GUUAUCGCAGGAUAUUAGUACUUGUACAUGAGGAUCACCCAUGUUUAUUGGGUCUAAGAAUAAGAAGGGCGAUGAA [JR_Ex5_Sub005] (Eterna round: R97, puzzle: Exclusion 5) | 105 nM | 32 nM | – | – | – | –
AAUAAAGGCCGAGGAUAUCGGAAAGGAAGUGUACGAGAAGGCGGCAAAAGAACAUGAGGAUCACCCAUGUGGGCCGAUCUUCCG [PowerStrip EXNG 1.2] (Eterna round: R96, puzzle: Exclusion NG 1) | 26.4 nM | 18 nM | 10 nM | – | – | –
AAAUGCAAGCAAAGAUCUUACAUGAGGAUCACCCAUGUGCUCGUCUUAUAAAGUACUAUCACGAAAGUGAUAGUACA [Sensor 3, v1 - 28] (puzzle: Sensor v3, turn-off variant 1) | – | – | – | 90.9 nM | 25.9 nM | 18.1 nM
ACUUAUUGAGGAUAUACAGAAAAUUACAUGAGGAUCACCCAUGUUCUUCAAUGUAUAUAUGUAGAAGGCAGAAGAA [JL-ex5-4.26 Malcolm mod] (Eterna round: R97, puzzle: Exclusion 5) | 29.3 nM | 12.9 nM | – | – | – | –
CCAGGCGUCUUGGCUCGUCUUAUUUGGAGAGGAUUGAUAACAUGAGGAUCACCCAUGUGUGUGGGAGAGUUGCAGUG [JR_SV3TOV2_Sub018] (puzzle: Sensor v3, turn-off variant 2) | – | – | – | 425 nM | 335 nM | 374 nM
CCUCGACAUGAGGAUCACCCAUGUCAGGAUAUUGUGUUUUGGGUUUUUUACCUUUAGGCAAGAAGGGAUGUGUG [LRO-Excl1-17] (puzzle: Exclusion 1) | – | – | – | 16.1 nM | – | –
CUAAAUCAUGUAGGAUAUGCGUGGCAAAGCUAUGCAGAAGGACAUGAGGAUCACCCAUGUCAUUCCGUCUGCGUACAGACGGGA [Mat - Exclusion NG 1 - Mod of JL - D49] (Eterna round: R96, puzzle: Exclusion NG 1) | 187 nM | 24.9 nM | 19.9 nM | – | – | –
CUUUUGUGAGGAUAUCAGUAGUUAAUAAAUAAAAUUACUACUGAGAAGGCACAUGAGGAUCACCCAUGUUCCUC [salish99_ex3_r3_075] (puzzle: Exclusion 4) | – | – | – | 39.4 nM | – | –
UAUUUGCAAGGAUAUGAUUUAAGUAACAUGAGGAUCACCCAUGUUUAUCCGUUGUUAUGUUCAGAAGGUGCGUGAU [JR_E5_Sub019] (puzzle: Exclusion 5) | – | – | – | 50.2 nM | – | –
GCGGAGUCAGGAUAUUGAAUUUAACGUACCAAUAAGGUACGCGAGAAGGGACAUGAGGAUCACCCAUGUACCGC [Mat - Exclusion 4 - Eli Mod - D35] (Eterna round: R97, puzzle: Exclusion 4) | 16.5 nM | 17.3 nM | – | – | – | –
CUUGUGUAAGGAUAUCGAGUAGAACGCUCGAGUUCUGAGCUCGAGAAGGUACAUGAGGAUCACCCAUGUUAAAA [Atusgete] (puzzle: Exclusion 4) | – | – | – | 42.2 nM | – | –
CGGUGCUGAGGAUAUACAUGAGGAUCACCCAUGUGUGCCAGCUAGCUGACUGGCGCUUGUAGAAGGCAGUACUG [JL-ex3-2.12 Brourd mod] (puzzle: Exclusion 3) | – | – | – | 11.4 nM | – | –
AAAAAGAUAGGAUAUACAAUAAAAUAAAAUAAAAUAAAUACACAUGAGGAUCACCCAUGUAGAAGGAUCGAAAA [Exclusion 2 #1] (puzzle: Exclusion 2) | – | – | – | 25 nM | 26.6 nM | 31.2 nM
AAAAGCCUAGGAUAUACUUGAGGAUCACCCAAGUAGGGUCCCAUGGACCCGUCCUCGUGUAGAAGGAGGAAAAG [Dierlabe] (Eterna round: R97, puzzle: Exclusion 3) | 156 nM | 60.5 nM | – | – | – | –
GCAAGAAUAGGAUAUACACCAUGCCAGCUUCUAUACAACGCACAUGAGGAUCACCCAUGUAGAAGGGUUCUCUC [Exclusion-2-#11] (Eterna round: R97, puzzle: Exclusion 2) | 336 nM | 323 nM | – | – | – | –
CCUCCACAUGAGGAUCACCCAUGUCAGGAUAUCGUGUGUUUUUUUUCGGUCGUGCGUGCGAGAAGGGACGUCUU (puzzle: Exclusion 1) | – | – | – | 24.8 nM | – | –
AGCUGUGGCCGAGGAUAUACACAUGAGGAUCACCCAUGUAGGCGCGGAAACGCGCUAAAAGGGUUGUAGAAGGCGGUCUCAGCA [Eli eng2 - 054] (Eterna round: R96, puzzle: Exclusion NG 2) | 471 nM | 114 nM | 165 nM | – | – | –
